US11726091B2, “Compositions and methods of diagnosing pancreatic cancer” (THE REGENTS OF THE UNIVERSITY OF CALIFORNIA, priority 2017, dated 2023)
Where a SMILES comes first, the peptide text is derived from it. Where no end group is shown, it is not given here. [ ]: non-standard residue; d: D form. The star is where a group is joined. Sta = CC(C)C[C@H](N)[C@@H](O)CC(=O)O; Isovaleryl = CC(C)CC(=O)*

Experiments:
Cathepsin E [1] = biological target: T1, Cathepsin E (Homo sapiens, UniProt P14091); experiment: Cathepsin E fluorescent substrate assay in patient cyst fluid, mucinous vs nonmucinous cysts; set-up: both proteases are released into cyst fluid in their proforms; from tissue; host or cells: human pancreatic cyst fluid; settings: differentiating mucinous from nonmucinous cysts; 110 cyst fluid samples; cutoff 1.23-fold change in fluorescence
T1 sequence (P14091 54-396): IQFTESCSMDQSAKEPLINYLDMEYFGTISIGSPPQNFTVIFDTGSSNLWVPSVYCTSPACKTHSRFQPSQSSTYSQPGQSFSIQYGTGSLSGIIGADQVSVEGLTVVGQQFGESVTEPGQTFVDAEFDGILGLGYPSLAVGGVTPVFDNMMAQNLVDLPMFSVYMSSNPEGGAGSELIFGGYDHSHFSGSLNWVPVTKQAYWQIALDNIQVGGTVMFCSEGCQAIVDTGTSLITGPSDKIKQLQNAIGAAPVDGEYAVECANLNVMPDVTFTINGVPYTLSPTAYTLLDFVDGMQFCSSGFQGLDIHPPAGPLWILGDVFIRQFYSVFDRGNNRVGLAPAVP
Source text: (§1) Pancreatic cyst fluid samples were collected from preconsented patients under institutional review board oversight. All patients included in the study underwent surgical resection of their cystic lesion and have a pathologically confirmed diagnosis. The highest grade of dysplasia observed during pathological evaluation of each cystic lesion is reported. Samples were collected either at the time of surgical resection or during diagnostic endoscopic ultrasound prior to resection of the cystic lesion. Cyst fluid samples were split into 100 μL aliquots and frozen to −80° C. within 60 minutes of collection. Samples underwent at most two freeze-thaw cycles prior to experimental analysis. Total cyst fluid protein concentration was determined by the bicinchoninic acid assay. CEA levels were evaluated for the majority of samples, but were unavailable in 21 cases due to limited cyst fluid volume.
(§2) All fluorescent protease activity assays were performed in triplicate in black, round-bottom 384 well plates. Assays were run for 1 hour in 15 μL of acetate buffer with 0.01% Tween. […] Fluorescent substrate cleavage was monitored with a Biotek Synergy HT plate reader using excitation and emission wavelengths of 328 nm and 393 nm, respectively. Selectivity of the recombinant proteases was assessed by comparing the initial velocity of substrate hydrolysis in relative fluorescent units per second (RFU/sec). […]

Cathepsin E [2] = biological target: T1, Cathepsin E; experiment: Fluorescent protease activity assay with recombinant cathepsin E; format: biochemical; set-up: purchased R&D Systems 1294-AS
Description: (§3) Synthesis of internally quenched fluorescent peptides was conducted using Fmoc solid-phase peptide synthesis on a Syro II automated synthesizer (Biotage). Briefly, reactors were charged with Wang resin preloaded with Fmoc-Lys(dinitrophenol) (Anaspec, A23856). Coupling reactions were conducted on a 0.0125 mmol scale in 500 μL of DMF with 5 equivalents of Fmoc amino acid (Anaspec), 4.9 equivalents of HCTU (Anaspec), and 20 equivalents of N-methylmorpholine (NMM). Fmoc deprotection was conducted by incubation with 500 μL 40% 4-methlypiperidine in DMF, followed by 500 μL 20% 4-methlypiperidine in DMF. Substrates were capped with a […] Lys-(7-methoxycoumarin-4-acetic acid)-OH (EMD Millipore, 852095) followed by two D-Arg residues to enhance solubility. Peptides were removed from resin by incubating with 500 μL of cleavage solution (95% trifluoroacetic acid, 2.5% water, 2.5% Triisopropylsilane). […]
(§4) All fluorescent protease activity assays were performed in triplicate in black, round-bottom 384 well plates. […] Fluorescent substrate cleavage was monitored with a Biotek Synergy HT plate reader using excitation and emission wavelengths of 328 nm and 393 nm, respectively. Selectivity of the recombinant proteases was assessed by comparing the initial velocity of substrate hydrolysis in relative fluorescent units per second (RFU/sec). […]

Cathepsin E [3] = biological target: T1, Cathepsin E; experiment: Cleavage of peptide substrates by cathepsin E (MSP-MS assay); format: biochemical; set-up: purchased R&D Systems 1294-AS; settings: Target Protease Cathepsin E; for Relative Cleavage: relative to the most cleaved substrate (1.00)
Description: (§5) The MSP-MS assay was performed as previously described (34). Cyst fluid was diluted to 100 μg/mL in assay buffer (either pH 7.5 phosphate buffer or pH 3.5 acetate buffer) and pre-incubated for 10 minutes. For analysis of protease inhibitor sensitivity, 1 mM AEBSF (Sigma, A8456), 2 μM E-64 (Sigma, E3132), 2 μM pepstatin (Sigma, P5318), 2 mM 1,10-phenanthroline (Sigma, 131337), or DMSO were included in pre-incubation. The 228 tetradecapeptide library was split into two pools and diluted in assay buffer to a concentration of 1 μM of each peptide. 75 μL of diluted cyst fluid and peptide pools were then combined and incubated at room temperature. 30 μL aliquots were removed after 15 and 60 minutes, protease activity quenched with 8 M guanidinium hydrochloride, and flash-frozen in liquid N2. For recombinant gastricsin (R&D Systems, 6186-AS), cathepsin D (R&D Systems, 1014-AS), and cathepsin E (R&D Systems, 1294-AS), the MSP-MS assay was performed as described above with slight modifications: 10 nM of recombinant protease in pH 3.5 acetate buffer was used and aliquots were removed after 15, 60, and 240 minutes.
(§6) Prior to peptide cleavage site identification by mass spectrometry, samples were desalted using C18 tips (Rainin). Mass spectrometry analysis was carried out with an LTQ Orbitrap XL mass spectrometer coupled to a 10,000 psi nanoACQUITY Ultra Performance Liquid Chromatography (UPLC) System (Waters) for peptide separation by reverse phase liquid chromatography (RPLC). Peptides were separated over a C18 column (Thermo) and eluted by applying a flow rate of 300 nL/min with a 65-minute linear gradient from 2-30% acetonitrile. Survey scans were recorded over a 325-1500 m/z range and the six most intense precursor ions were fragmented by collision-induced dissociation (CID) for MS/MS.
(§7) Raw mass spectrometry data was processed to generate peak lists using MSConvert. Peak lists were then searched in Protein Prospector v. 5.10.0 (35) against a custom database containing the sequences from the 228 tetradecapeptide library. Searches used a mass accuracy tolerance of 20 ppm for precursor ions and 0.8 Da for fragment ions. Variable modifications included N-terminal pyroglutamate conversion from glutamine or glutamate and oxidation of tryptophan, proline, and tyrosine. Searches were subsequently processed using the MSP-xtractor software (http://www.craiklab.ucsf.edu/extractor.html), which extracts the peptide cleavage site and spectral counts of the corresponding cleavage products. Spectral counts were used for the relative quantification of peptide cleavage products.

Gastricsin [4] = biological target: T2, Gastricsin (Homo sapiens, UniProt P20142); experiment: Gastricsin fluorescent substrate assay in patient cyst fluid, mucinous vs nonmucinous cysts; set-up: both proteases are released into cyst fluid in their proforms; from tissue; host or cells: human pancreatic cyst fluid; settings: differentiating mucinous from nonmucinous cysts; 110 cyst fluid samples; cutoff 1.23-fold change in fluorescence
T2 sequence (P20142 60-388): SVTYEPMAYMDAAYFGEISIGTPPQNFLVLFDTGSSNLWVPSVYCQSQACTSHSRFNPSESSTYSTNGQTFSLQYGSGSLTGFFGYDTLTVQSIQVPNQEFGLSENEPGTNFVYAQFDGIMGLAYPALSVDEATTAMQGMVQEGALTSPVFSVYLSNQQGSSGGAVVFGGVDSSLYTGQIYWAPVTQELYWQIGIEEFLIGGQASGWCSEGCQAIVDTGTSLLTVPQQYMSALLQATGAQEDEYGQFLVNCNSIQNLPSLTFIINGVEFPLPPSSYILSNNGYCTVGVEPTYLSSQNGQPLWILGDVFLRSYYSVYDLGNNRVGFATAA
Source text: as §1, §2

Gastricsin [5] = biological target: T2, Gastricsin; experiment: Cleavage of peptide substrates by gastricsin (MSP-MS assay); format: biochemical; set-up: purchased R&D Systems 6186-AS; settings: Target Protease Gastricsin; for Relative Cleavage: relative to the most cleaved substrate (1.00)
Description: as §5, §6, §7

Gastricsin [6] = biological target: T2, Gastricsin; experiment: Fluorescent protease activity assay with recombinant gastricsin; format: biochemical; set-up: purchased R&D Systems 6186-AS
Description: as §3, §4

[7] = system: protease activity of mucinous cyst fluid sample; experiment: MSP-MS analysis of protease inhibitor sensitivity in mucinous cyst fluid; format: biochemical, human; settings: for number of mucinous-specific substrates whose cleavage was inhibited: 1 mM AEBSF, 2 mM 1,10-phenanthroline
Description: as §5, §6, §7

[8] = system: cathepsin E and gastricsin protease activity in cyst fluid; experiment: Pepstatin inhibition of fluorescent substrate cleavage by mucinous cyst fluid; format: biochemical, human; settings: fluid from a mucinous cyst, pre-incubation with 2 μM pepstatin; FIG. 11
Description: All fluorescent protease activity assays were performed in triplicate in black, round-bottom 384 well plates. Assays were run for 1 hour in 15 μL of acetate buffer with 0.01% Tween. The pH of the acetate buffer was adjusted to promote activity of either aspartyl protease (pH 3.5 for the cathepsin E substrate and pH 2.0 for the gastricsin substrate). 10 μM of substrate was used for all assays (unless otherwise indicated) and was incubated with either 10 nM of recombinant protease or 50 μg/mL of cyst fluid protein. For kinetic analysis of gastricsin activity, the substrate concentration ranged from 0.1-25 μM. For analysis of inhibitor sensitivity, cyst fluid samples were pre-incubated with 2 μM of pepstatin. Fluorescent substrate cleavage was monitored with a Biotek Synergy HT plate reader using excitation and emission wavelengths of 328 nm and 393 nm, respectively. Selectivity of the recombinant proteases was assessed by comparing the initial velocity of substrate hydrolysis in relative fluorescent units per second (RFU/sec). For cyst fluid samples, the change in endpoint RFU was compared relative to wells that contained substrate, but no cyst fluid.

[9] = single mucinous cyst fluid sample, FIG. 2A
[10] = single mucinous cyst fluid sample, 2 μM pepstatin, FIG. 2A

Molecule	Total Cleavage (Cathepsin E [3])	Relative Cleavage (Cathepsin E [3])	Total Cleavage (Gastricsin [5])	Relative Cleavage (Gastricsin [5])	other results
AGFSLPA (also: fluorophore/quencher) [AGFSL|PA]					Sensitivity (Cathepsin E [1]): 70%; Specificity (Cathepsin E [1]): 92%; limit-of-detection of cathepsin E (Cathepsin E [2]; fluorescence-based activity assay, FIG. 17): approximately 4 μg/mL; selectivity for cathepsin E over both cathepsin D and gastricsin (Cathepsin E [2]; initial velocity of substrate hydrolysis, 10 nM recombinant protease, 10 μM substrate): more than 100 fold
FGIFYLNG [FGIF|YLNG, cathepsin E peptide substrate]	22	0.88			
DEGWALQH (also: fluorophore and quencher) [DEGW|ALQH]			30	0.47	Sensitivity (Gastricsin [4]): 93%; Specificity (Gastricsin [4]): 100%; limit-of-detection of gastricsin (Gastricsin [6]; fluorescence-based activity assay, FIG. 16): approximately 600 ng/mL; selectivity for gastricsin over both cathepsins D and E (Gastricsin [6]; initial velocity of substrate hydrolysis, 10 nM recombinant protease, 10 μM substrate (FIG. 4D)): greater than 120 fold
GLYFRYE [GLY|FRYE, cathepsin E peptide substrate]	25	1.00			
c1cnc2c(c1)ccc1cccnc12 [1,10-phenanthroline]					number of mucinous-specific substrates whose cleavage was inhibited [7, 9]: 3 substrates
Cl.NCCc1ccc(S(=O)(=O)F)cc1 [AEBSF]					number of mucinous-specific substrates whose cleavage was inhibited [7, 9]: 3 substrates
CC(C)CC(=O)N[C@H](C(=O)N[C@H](C(=O)N[C@@H](CC(C)C)[C@@H](O)CC(=O)N[C@@H](C)C(=O)N[C@@H](CC(C)C)[C@@H](O)CC(=O)O)C(C)C)C(C)C [pepstatin] (Isovaleryl-VV[Sta]A[Sta]-OH)					effect on cleavage of the mucinous-specific substrates ([7]; second mucinous cyst fluid sample, FIG. 8): block cleavage of the majority of the mucinous-specific substrates; number of additional mucinous-specific substrates whose cleavage was partially inhibited [7, 10]: 8 substrates; number of mucinous-specific substrates whose cleavage was fully inhibited [7, 10]: 20 substrates; inhibition of cleavage of gastricsin and cathepsin E fluorescent substrates [8]: fully inhibited

More lines, main results first:

Total Cleavage (Cathepsin E [3])	Relative Cleavage (Cathepsin E [3])	Total Cleavage (Gastricsin [5])	Relative Cleavage (Gastricsin [5])	Molecule	other results
10	0.40			HMIALYWG [HMIA|LYWG, cathepsin E peptide substrate]	
17	0.68			IKILMFYW [IKIL|MFYW, cathepsin E peptide substrate]	
		22	0.34	VGKWSYRM [VGKW|SYRM, gastricsin peptide substrate]	
		21	0.33	NMKWTRVL [NMKW|TRVL, gastricsin peptide substrate]	
		64	1.00	PWTWYGVK [PWTW|YGVK, gastricsin peptide substrate]	
